How the values were obtained:
[1] = substrate: N[C@@H](CCC(=O)N[C@H](CSc1ccc([N+](=O)[O-])cc1[N+](=O)[O-])C(=O)NCC(=O)O)C(=O)O; assay: (§1) TP_TRANSPORTER: uptake in brush-border membrane vesicle from Caco-2 cells; type: functional, cell membranes
[2] = substrate: C[C@]12CC[C@@H]3c4ccc(O)cc4CC[C@H]3[C@@H]1CC[C@@H]2O[C@@H]1O[C@H](C(=O)O)[C@@H](O)[C@H](O)[C@H]1O; assay: as §1; type: functional, cell membranes

B1: ATP-binding cassette sub-family C member 2 (Homo sapiens) (protein)
chain: MLEKFCNSTFWNSSFLDSPEADLPLCFEQTVLVWIPLGYLWLLAPWQLLHVYKSRTKRSSTTKLYLAKQVFVGFLLILAAIELALVLTEDSGQATVPAVRYTNPSLYLGTWLLVLLIQYSRQWCVQKNSWFLSLFWILSILCGTFQFQTLIRTLLQGDNSNLAYSCLFFISYGFQILILIFSAFSENNESSNNPSSIASFLSSITYSWYDSIILKGYKRPLTLEDVWEVDEEMKTKTLVSKFETHMKRELQKARRALQRRQEKSSQQNSGARLPGLNKNQSQSQDALVLEDVEKKKKKSGTKKDVPKSWLMKALFKTFYMVLLKSFLLKLVNDIFTFVSPQLLKLLISFASDRDTYLWIGYLCAILLFTAALIQSFCLQCYFQLCFKLGVKVRTAIMASVYKKALTLSNLARKEYTVGETVNLMSVDAQKLMDVTNFMHMLWSSVLQIVLSIFFLWRELGPSVLAGVGVMVLVIPINAILSTKSKTIQVKNMKNKDKRLKIMNEILSGIKILKYFAWEPSFRDQVQNLRKKELKNLLAFSQLQCVVIFVFQLTPVLVSVVTFSVYVLVDSNNILDAQKAFTSITLFNILRFPLSMLPMMISSMLQASVSTERLEKYLGGDDLDTSAIRHDCNFDKAMQFSEASFTWEHDSEATVRDVNLDIMAGQLVAVIGPVGSGKSSLISAMLGEMENVHGHITIKGTTAYVPQQSWIQNGTIKDNILFGTEFNEKRYQQVLEACALLPDLEMLPGGDLAEIGEKGINLSGGQKQRISLARATYQNLDIYLLDDPLSAVDAHVGKHIFNKVLGPNGLLKGKTRLLVTHSMHFLPQVDEIVVLGNGTIVEKGSYSALLAKKGEFAKNLKTFLRHTGPEEEATVHDGSEEEDDDYGLISSVEEIPEDAASITMRRENSFRRTLSRSSRSNGRHLKSLRNSLKTRNVNSLKEDEELVKGQKLIKKEFIETGKVKFSIYLEYLQAIGLFSIFFIILAFVMNSVAFIGSNLWLSAWTSDSKIFNSTDYPASQRDMRVGVYGALGLAQGIFVFIAHFWSAFGFVHASNILHKQLLNNILRAPMRFFDTTPTGRIVNRFAGDISTVDDTLPQSLRSWITCFLGIISTLVMICMATPVFTIIVIPLGIIYVSVQMFYVSTSRQLRRLDSVTRSPIYSHFSETVSGLPVIRAFEHQQRFLKHNEVRIDTNQKCVFSWITSNRWLAIRLELVGNLTVFFSALMMVIYRDTLSGDTVGFVLSNALNITQTLNWLVRMTSEIETNIVAVERITEYTKVENEAPWVTDKRPPPDWPSKGKIQFNNYQVRYRPELDLVLRGITCDIGSMEKIGVVGRTGAGKSSLTNCLFRILEAAGGQIIIDGVDIASIGLHDLREKLTIIPQDPILFSGSLRMNLDPFNNYSDEEIWKALELAHLKSFVASLQLGLSHEVTEAGGNLSIGQRQLLCLGRALLRKSKILVLDEATAAVDLETDNLIQTTIQNEFAHCTVITIAHRLHTIMDSDKVMVLDNGKIIECGSPEELLQIPGPFYFMAKEAGIENVNSTKF
Km [1]: 16.9 µM | Km [2]: 9.4 µM
